Assay results as given in article PMC10017041 (Science Advances, 2023).

Key:
Assay in all cases: cryo-EM structure
[1] = target: CCT3 subunit of yeast TRiC (S. cerevisiae, UniProt P39077 1-534)
[2] = target: CCT1 subunit of yeast TRiC (S. cerevisiae, UniProt P12612 1-559)
[3] = target: CCT4 subunit of yeast TRiC (S. cerevisiae, UniProt P39078 1-528)
[4] = target: CCT2 subunit of yeast TRiC (S. cerevisiae, UniProt P39076 1-527)
[5] = target: CCT5 subunit of yeast TRiC (S. cerevisiae, UniProt P40413 1-562)
CCT5 subunit of yeast TRiC, sequence (P40413 whole entry): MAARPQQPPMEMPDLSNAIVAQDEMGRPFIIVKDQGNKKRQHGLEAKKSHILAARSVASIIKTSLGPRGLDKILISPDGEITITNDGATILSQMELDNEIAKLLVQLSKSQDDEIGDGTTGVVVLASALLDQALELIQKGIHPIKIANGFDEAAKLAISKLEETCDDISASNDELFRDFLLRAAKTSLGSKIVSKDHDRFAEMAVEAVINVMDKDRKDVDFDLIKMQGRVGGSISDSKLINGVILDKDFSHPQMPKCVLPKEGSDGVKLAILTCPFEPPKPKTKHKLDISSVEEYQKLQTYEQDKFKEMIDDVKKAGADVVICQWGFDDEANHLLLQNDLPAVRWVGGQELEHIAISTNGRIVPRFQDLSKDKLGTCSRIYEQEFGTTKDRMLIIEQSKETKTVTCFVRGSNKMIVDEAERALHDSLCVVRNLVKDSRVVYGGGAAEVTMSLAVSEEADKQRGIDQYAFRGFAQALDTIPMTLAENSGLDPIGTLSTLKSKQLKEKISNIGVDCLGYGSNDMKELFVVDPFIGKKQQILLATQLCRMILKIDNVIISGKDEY

[6] = target: CCT7 subunit of yeast TRiC (S. cerevisiae, UniProt P42943 1-550)
CCT7 subunit of yeast TRiC, sequence (P42943 whole entry): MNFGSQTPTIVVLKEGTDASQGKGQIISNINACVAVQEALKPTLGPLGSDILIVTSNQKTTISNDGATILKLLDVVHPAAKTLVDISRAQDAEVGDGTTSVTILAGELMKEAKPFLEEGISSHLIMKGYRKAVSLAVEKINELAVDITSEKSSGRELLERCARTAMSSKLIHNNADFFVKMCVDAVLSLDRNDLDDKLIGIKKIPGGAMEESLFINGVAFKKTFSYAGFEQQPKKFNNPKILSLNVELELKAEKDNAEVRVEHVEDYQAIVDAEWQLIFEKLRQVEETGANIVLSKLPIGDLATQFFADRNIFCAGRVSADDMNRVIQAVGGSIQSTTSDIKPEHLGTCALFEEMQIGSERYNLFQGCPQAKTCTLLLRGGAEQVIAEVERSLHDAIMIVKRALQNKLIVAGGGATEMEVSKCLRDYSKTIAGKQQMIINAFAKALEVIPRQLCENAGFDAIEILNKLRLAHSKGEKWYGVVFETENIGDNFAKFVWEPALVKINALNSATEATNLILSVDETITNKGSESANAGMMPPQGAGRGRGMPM

[7] = target: CCT6 subunit of yeast TRiC (S. cerevisiae, UniProt P39079 1-546)
CCT6 subunit of yeast TRiC, sequence (P39079 whole entry): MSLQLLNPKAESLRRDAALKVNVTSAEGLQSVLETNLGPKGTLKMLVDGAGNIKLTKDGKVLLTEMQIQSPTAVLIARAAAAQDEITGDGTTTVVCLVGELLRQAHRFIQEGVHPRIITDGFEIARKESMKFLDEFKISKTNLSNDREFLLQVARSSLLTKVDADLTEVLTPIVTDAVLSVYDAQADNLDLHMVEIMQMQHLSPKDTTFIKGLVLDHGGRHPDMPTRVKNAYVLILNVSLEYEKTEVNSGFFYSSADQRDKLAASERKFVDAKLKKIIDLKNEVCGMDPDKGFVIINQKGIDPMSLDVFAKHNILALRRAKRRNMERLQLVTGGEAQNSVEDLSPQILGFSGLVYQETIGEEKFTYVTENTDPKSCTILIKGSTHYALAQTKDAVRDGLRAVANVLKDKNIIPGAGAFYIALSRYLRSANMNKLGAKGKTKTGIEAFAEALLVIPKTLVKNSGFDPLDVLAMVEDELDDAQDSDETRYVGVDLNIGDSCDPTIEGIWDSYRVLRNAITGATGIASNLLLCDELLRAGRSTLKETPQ

CCT4 subunit of yeast TRiC, sequence (P39078 whole entry): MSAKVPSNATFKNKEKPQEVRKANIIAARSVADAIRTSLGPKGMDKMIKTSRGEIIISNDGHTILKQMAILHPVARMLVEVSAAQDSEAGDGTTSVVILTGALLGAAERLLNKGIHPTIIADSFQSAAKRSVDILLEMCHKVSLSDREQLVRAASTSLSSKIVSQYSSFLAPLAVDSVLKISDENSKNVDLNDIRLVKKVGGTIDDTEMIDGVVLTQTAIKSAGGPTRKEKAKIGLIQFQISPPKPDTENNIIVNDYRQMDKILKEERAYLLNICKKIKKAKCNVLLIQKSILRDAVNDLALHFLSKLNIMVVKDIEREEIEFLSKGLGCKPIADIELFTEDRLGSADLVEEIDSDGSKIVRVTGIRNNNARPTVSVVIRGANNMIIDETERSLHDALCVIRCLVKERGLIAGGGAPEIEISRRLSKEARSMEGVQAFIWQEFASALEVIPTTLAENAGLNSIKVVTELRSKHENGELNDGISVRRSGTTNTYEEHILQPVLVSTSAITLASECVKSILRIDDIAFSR
CCT2 subunit of yeast TRiC, sequence (P39076 whole entry): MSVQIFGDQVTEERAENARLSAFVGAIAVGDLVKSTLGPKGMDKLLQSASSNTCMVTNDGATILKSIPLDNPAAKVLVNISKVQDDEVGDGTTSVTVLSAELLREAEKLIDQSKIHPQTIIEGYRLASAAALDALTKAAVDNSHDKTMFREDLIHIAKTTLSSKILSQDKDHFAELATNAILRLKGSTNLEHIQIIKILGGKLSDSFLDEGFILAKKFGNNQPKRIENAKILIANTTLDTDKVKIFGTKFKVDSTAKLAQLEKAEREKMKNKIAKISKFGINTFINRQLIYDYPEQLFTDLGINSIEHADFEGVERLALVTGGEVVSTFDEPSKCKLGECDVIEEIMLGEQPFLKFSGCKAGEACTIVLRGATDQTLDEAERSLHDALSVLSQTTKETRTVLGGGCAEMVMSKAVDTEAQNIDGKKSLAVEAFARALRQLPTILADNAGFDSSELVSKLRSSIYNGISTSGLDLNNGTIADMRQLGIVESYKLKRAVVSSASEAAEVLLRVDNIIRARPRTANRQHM
CCT1 subunit of yeast TRiC, sequence (P12612 whole entry): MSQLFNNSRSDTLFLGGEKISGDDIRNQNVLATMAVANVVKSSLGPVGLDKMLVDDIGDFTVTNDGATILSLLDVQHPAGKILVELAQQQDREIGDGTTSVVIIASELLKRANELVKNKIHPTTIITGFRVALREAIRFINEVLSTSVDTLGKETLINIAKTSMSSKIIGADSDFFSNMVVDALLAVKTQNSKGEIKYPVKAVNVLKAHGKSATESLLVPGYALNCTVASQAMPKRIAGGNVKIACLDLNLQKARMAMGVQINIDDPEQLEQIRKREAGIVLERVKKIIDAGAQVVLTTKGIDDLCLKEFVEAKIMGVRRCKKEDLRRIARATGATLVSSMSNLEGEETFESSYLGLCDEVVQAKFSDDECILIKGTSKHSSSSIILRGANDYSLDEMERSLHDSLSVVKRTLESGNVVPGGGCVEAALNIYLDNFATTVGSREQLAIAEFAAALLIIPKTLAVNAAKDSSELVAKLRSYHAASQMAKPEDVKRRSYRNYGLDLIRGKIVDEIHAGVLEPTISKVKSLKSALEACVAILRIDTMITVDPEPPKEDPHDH
CCT3 subunit of yeast TRiC, sequence (P39077 whole entry): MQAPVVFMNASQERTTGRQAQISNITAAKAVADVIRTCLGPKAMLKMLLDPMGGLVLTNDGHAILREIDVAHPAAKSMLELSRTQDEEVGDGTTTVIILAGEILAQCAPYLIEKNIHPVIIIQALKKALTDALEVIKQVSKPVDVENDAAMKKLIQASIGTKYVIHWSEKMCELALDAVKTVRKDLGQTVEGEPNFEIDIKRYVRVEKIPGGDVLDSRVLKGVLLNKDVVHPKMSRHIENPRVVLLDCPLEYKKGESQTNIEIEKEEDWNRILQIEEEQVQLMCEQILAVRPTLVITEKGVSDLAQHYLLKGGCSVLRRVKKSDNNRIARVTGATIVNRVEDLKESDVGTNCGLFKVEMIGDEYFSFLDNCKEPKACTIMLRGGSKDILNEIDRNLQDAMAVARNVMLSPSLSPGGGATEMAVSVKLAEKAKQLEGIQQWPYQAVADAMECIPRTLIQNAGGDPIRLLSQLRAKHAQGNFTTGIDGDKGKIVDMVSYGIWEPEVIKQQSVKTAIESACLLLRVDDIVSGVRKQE

binding result [1]: binds | binding result [2]: binds | binding result [3]: binds | binding result [4]: binds | binding result [5]: binds | binding result [6]: binds | binding result [7]: binds
B1: yeast plp2 (homolog of PhLP2 in Saccharomyces cerevisiae) (natural protein, S. cerevisiae)
chain: MQNEPMFQVQVDESEDSEWNDILRAKGVIPERAPSPTAKLEEALEEAIAKQHENRLEDKDLSDLEELEDDEDEDFLEAYKIKRLNEIRKLQERSKFGEVFHINKPEYNKEVTLASQGKKYEGAQTNDNGEEDDGGVYVFVHLSLQSKLQSRILSHLFQSAACKFREIKFVEIPANRAIENYPESNCPTLIVYYRGEVIKNMITLLELGGNNSKMEDFEDFMVKVGAVAEGDNRLIMNRDDEESREERKLHYGEKKSIRSGIRGKFNVGIGGNDDGNINDDDDGFFD
